This is an account of results in patent US20110301073, “Novel DNA-binding proteins and uses thereof” (Sangamo BioSciences, Inc., published 2011).

One series has as its target T1, TALE13 +39 FokI (Xanthomonas axonopodis (engineered)).
T1 chain: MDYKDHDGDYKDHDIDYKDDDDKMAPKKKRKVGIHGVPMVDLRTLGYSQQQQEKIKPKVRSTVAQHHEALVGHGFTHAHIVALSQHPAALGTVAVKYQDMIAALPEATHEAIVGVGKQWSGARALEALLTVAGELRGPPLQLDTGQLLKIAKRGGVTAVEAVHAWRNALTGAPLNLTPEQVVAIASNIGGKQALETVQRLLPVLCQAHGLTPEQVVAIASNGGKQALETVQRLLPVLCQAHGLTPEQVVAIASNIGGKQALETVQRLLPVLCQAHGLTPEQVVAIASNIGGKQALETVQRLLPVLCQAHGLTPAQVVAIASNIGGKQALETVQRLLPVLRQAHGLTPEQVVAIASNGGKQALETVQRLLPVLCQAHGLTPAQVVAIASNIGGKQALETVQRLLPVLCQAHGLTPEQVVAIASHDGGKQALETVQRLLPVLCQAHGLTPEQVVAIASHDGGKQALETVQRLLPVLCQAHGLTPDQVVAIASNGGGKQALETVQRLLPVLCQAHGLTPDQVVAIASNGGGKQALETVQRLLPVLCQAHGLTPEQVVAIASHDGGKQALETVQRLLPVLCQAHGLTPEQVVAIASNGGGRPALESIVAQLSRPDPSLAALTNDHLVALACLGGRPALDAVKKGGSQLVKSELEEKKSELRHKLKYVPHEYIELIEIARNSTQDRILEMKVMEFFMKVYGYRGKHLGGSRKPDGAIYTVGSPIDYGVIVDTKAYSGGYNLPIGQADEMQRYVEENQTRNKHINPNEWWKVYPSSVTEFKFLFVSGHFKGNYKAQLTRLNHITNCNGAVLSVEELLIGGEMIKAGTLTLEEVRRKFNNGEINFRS
The series can be described thus: cleavage_in_vitro; two inverted sites, 16 bp gap; NEB Buffer 2, 37 C. As to conditions: tags: FLAG, NLS, chain copies: 2. How it is done:
(§1) TALE domain fusions were also constructed using Fold cleavage half domains. For these examples, wild type FokI half cleavage domains were used so that for nuclease activity, a homodimer must be formed from two of the fusions. For these fusions, the TALE13 DNA binding domain was fused to each FokI half domain by cloning the TALE DNA binding domain into a plasmid adjacent to FokI-specifying sequence. In addition, various linkers were tested for use between the DNA binding domain and the nuclease domain. Linkers L2 and L8 were used which are as follows: L2=GS (SEQ ID NO:71) and L8=[…] (SEQ ID NO:72). The target sites were cloned into a TOPO2.1 target vector (Invitrogen) with varying gap spacings between each target binding site such that the two were separated from each other by 2 to 22 bp. PCR amplification of an approximately 1 kb region of the target vector was done to generate the target DNAs. The TALE DNA binding domains were also truncated as described previously, and are described using the same nomenclature as described above in Examples 2 and 6. The TALE domain nuclease fusion clones were expressed in the TNT Rabbit Reticulocyte Lysate system by adding 5 μL of water containing 250 nanograms of the nuclease fusion clone plasmid to 20 μL of lysate and incubating at 30° C. for 90 minutes.
(§2) The lysate was then used to cleave the target DNAs as follows: 2.5 μL of lysate were added to a 50 μL reaction containing 50 nanograms of PCR-amplified target DNA and a final Buffer 2 (New England Biolabs) concentration of 1×. The cleavage reaction was for one hour at 37° C., followed by a 20 minute heat inactivation stage at 65° C. The reaction was then centrifuged at high speed to separate the target DNA from the lysate, causing the lysate to condense into a pellet in the reaction well. The DNA-containing supernatant was pipetted off and run on an ethidium bromide-stained agarose gel (Invitrogen) to separate intact target DNA from cleaved target DNA. The agarose gel was then analyzed using AlphaEaseFC (Alpha Innotech) software to measure the amount of target DNA present in the large uncleaved DNA band and the two smaller DNA bands resulting from a single cleavage event of the target DNA. The percentage of cleaved DNA out of the total amount of target DNA loaded into the gel represents the percent cleavage in each reaction.

The target in another series is T2, TALE13 +79 FokI (Xanthomonas axonopodis (engineered)).
T2 chain: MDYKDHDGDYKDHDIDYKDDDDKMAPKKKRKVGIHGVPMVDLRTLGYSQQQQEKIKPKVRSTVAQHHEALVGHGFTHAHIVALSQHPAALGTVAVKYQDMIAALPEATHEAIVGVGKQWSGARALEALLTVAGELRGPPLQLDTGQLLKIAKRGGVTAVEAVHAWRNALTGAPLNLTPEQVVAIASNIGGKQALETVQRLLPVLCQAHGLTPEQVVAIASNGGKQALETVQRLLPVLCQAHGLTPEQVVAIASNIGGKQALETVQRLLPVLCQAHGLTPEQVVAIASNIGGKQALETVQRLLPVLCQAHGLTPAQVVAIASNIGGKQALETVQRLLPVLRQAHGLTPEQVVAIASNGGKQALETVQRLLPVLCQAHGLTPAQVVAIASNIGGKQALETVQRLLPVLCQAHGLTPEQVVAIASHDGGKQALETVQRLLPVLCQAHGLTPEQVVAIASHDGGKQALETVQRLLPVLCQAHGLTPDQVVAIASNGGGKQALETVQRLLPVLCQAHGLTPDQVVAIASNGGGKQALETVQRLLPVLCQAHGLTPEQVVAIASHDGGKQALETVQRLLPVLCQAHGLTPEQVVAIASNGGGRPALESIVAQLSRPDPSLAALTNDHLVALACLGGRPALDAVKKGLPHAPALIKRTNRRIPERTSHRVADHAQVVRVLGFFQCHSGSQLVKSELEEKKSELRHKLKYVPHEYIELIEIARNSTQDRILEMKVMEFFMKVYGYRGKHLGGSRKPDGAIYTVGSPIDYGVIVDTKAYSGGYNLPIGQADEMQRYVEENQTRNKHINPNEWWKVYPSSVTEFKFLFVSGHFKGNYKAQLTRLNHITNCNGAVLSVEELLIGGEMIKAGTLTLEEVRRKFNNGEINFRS
Described as above. As to conditions: tags: FLAG, NLS, chain copies: 2. How it is done:
as §1, §2

A further series addresses TALE13 N+137 C+95 (Xanthomonas axonopodis). The series can be described thus: DNA-binding ELISA; replicates. As to conditions: tags: N-terminal Met. An excerpt: When clones #3, 4 and 5 were subjected to the SELEX procedure, no consensus sequences were detected. Thus it appears that the TALE binding domains require N- and C-terminal cap sequences comprised in from clone #2 to yield a consensus sequence in this assay. Additional truncations were made and tested for activity using a DNA binding ELISA assay essentially as described in Bartsevich et al., Stem Cells. 2003; 21:632-7. The truncations are presented below in Table 7, which also includes the ELISA results. The starting N-terminus in these truncations is at amino acid 152, identical to the N-terminus in the #1, #2, and #3 truncations discussed above. In this fine-scale truncation series, the end points are as follows.
(In general: ELISA stands for enzyme-linked immunosorbent assay.)

B1: TALE13 target (dsDNA)
DNA 1: TATAAATACCTTCT
DNA 2: AGAAGGTATTTATA
B1: the activity in the series with TALE13 +39 FokI turned out to be 100 % cleavage; with TALE13 +79 FokI, 56 % cleavage. The binding result with TALE13 N+137 C+95 is listed as “binds”.
